Measurements reported in US20160228546A1 (CYTOMX THERAPEUTICS, published 2016).

The binders below were run against T1, anti-VEGF IgG antibody (DyLight-labelled in the FACS analyses.) (assay: method not stated).
T1 construct: It was DyLight-labelled in the FACS analysis; also called anti-VEGF antibody; DyLight labeled anti-VEGF
T1 sequence (VH, as listed by the source limits assumed, chain 1 of 2): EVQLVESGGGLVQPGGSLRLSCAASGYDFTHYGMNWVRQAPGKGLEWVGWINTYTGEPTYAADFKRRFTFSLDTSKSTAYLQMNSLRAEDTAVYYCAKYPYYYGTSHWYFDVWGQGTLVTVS
T1 sequence (VL, as listed by the source limits assumed, chain 2 of 2): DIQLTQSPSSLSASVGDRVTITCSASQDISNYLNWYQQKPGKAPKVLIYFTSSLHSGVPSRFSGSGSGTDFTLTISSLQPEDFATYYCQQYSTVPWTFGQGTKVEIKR

Kd [nM]	Binder
> 600	PCSEWQSMVQPRCYYGG [JS306]

What follows are binders tested against T2, anti-VEGF scFv AB (assay: FACS, peptide displayed on E. coli).
T2 construct: VL-linker-VH designed from ranibizumab; also called anti-VECF scFv
T2 sequence (scFv, as listed by the source): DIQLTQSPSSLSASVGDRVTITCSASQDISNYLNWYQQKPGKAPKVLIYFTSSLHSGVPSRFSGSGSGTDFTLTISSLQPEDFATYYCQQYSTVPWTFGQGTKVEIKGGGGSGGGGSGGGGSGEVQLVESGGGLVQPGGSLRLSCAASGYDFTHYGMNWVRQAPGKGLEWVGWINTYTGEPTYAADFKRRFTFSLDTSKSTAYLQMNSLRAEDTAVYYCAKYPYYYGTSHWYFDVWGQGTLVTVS

binding result	Binder
binds	GAMACYNIFEYWCSAMK (also called 315MM) [JS315]
binds	GHGMCYTILEDHCDRVR (also called 292MM) [JS292]
binds	GVGLCYTILEQWCEMGR (also called 313MM) [JS313]
binds	ATAVWNSMVKQSCYMQG (also called 283MM) [JS283]
binds	VHAWEQLVIQELYHC (also called 311MM) [JS311]

What follows are binders tested against T1, anti-VEGF IgG antibody (assay: FACS of eCPX3.0 clones at 3 concentrations of DyLight labeled anti-VEGF).

fold higher affinity than 306P [fold]	Binder
≥ 10	SCTAWQSMVEQRCYFG [JS1825]
≥ 10	PCSAWQSMVEQRCYFG [JS1827]
≥ 10	PCSKWESMVLQSCYFG [JS1829]
